This is an account of results in article PMC10397247.

One assay addresses T1, 4H3121-AA.
T1 chain: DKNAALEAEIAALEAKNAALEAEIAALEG
The assay can be described thus: two-hybrid library CCmax.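 Further: natural log of median RNA to DNA barcode read ratio; higher means stronger binding.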 Conditions: mean of both orientations.

Another assay has as its target T2, 4H971-AA.
T2 chain: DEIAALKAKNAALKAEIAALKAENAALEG
Briefly: two-hybrid library CCmax.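 Further: natural log of median RNA to DNA barcode read ratio; higher means stronger binding.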 The note with it: mean of both orientations.

For the next assay, the target named is T3, 4H497-AA.
T3 chain: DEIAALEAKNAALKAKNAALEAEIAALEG
The assay can be described thus: two-hybrid library CCmax.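 Further: natural log of median RNA to DNA barcode read ratio; higher means stronger binding.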 Conditions: mean of both orientations.

The next assay concerns the target T4, 4H3066-AA.
T4 chain: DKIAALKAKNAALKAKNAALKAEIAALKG
Briefly: two-hybrid library CCmax.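 Further: natural log of median RNA to DNA barcode read ratio; higher means stronger binding.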 The note with it: mean of both orientations.

The next assay concerns the target T5, 4H3591-AA.
T5 chain: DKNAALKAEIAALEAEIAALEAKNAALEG
The assay can be described thus: two-hybrid library CCmax. The note with it: mean of both orientations.

The next assay concerns the target T6, 4H2948-AA.
T6 chain: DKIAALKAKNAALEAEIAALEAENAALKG
The assay can be described thus: two-hybrid library CCmax. The note with it: mean of both orientations.

In the next assay the target is T7, 4H3102-AA.
T7 chain: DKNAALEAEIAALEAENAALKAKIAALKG
Briefly: two-hybrid library CCmax. Conditions: mean of both orientations.

A further assay deals with T8, 4H2991-AA.
T8 chain: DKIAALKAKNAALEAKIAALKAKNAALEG
Briefly: two-hybrid library CCmax. The note with it: mean of both orientations.

The target of a further assay is T9, 4H3666-AA.
T9 chain: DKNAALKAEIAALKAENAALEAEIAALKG
The assay can be described thus: two-hybrid library CCmax. The note with it: mean of both orientations.

Another assay addresses T10, 4H2283-AA.
T10 chain: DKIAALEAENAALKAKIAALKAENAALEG
The assay can be described thus: two-hybrid library CCmax. Conditions: mean of both orientations.

The target in the next assay is T11, 4H675-AA.
T11 chain: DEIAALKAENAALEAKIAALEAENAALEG
Briefly: two-hybrid library CCmax. Conditions: mean of both orientations.

A further assay deals with T12, 4H478-AA.
T12 chain: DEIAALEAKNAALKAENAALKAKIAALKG
The assay can be described thus: two-hybrid library CCmax. The note with it: mean of both orientations.

The next assay addresses T13, 4H3920-AA.
T13 chain: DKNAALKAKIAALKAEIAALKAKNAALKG
The assay can be described thus: two-hybrid library CCmax. Conditions: mean of both orientations.

The target of another assay is T14, 4H3029-AA.
T14 chain: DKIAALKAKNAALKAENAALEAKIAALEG
Briefly: two-hybrid library CCmax. The note with it: mean of both orientations.

For a further assay, the target named is T15, 4H3939-AA.
T15 chain: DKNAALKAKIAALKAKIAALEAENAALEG
The assay can be described thus: two-hybrid library CCmax.

The target in another assay is T16, 4H2248-AA.
T16 chain: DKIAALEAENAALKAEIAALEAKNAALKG
Briefly: two-hybrid library CCmax. Conditions: mean of both orientations.

The next assay has as its target T17, 4H3709-AA.
T17 chain: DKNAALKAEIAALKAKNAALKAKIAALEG
Briefly: two-hybrid library CCmax. The note with it: mean of both orientations.

For a further assay, the target named is T18, 4H391-AA.
T18 chain: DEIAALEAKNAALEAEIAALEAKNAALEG
The assay can be described thus: two-hybrid library CCmax. Conditions: mean of both orientations.

In the next assay the target is T19, 4H3446-AA.
T19 chain: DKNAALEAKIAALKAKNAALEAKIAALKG
The assay can be described thus: two-hybrid library CCmax. Conditions: mean of both orientations.

For a further assay, the target named is T20, 4H428-AA.
T20 chain: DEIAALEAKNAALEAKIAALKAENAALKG
Briefly: two-hybrid library CCmax. Conditions: mean of both orientations.

Another assay concerns the target T21, 4H656-AA.
T21 chain: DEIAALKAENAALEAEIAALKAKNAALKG
Briefly: two-hybrid library CCmax. The note with it: mean of both orientations.

The next assay concerns the target T22, 4H3628-AA.
T22 chain: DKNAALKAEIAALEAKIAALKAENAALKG
The assay can be described thus: two-hybrid library CCmax. Conditions: mean of both orientations.

For a further assay, the target named is T23, 4H2742-AA.
T23 chain: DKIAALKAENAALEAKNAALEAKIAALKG
The assay can be described thus: two-hybrid library CCmax. The note with it: mean of both orientations.

For the next assay, the target named is T24, 4H189-AA.
T24 chain: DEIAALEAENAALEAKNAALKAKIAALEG
The assay can be described thus: two-hybrid library CCmax.

Another assay concerns the target T25, 4H2713-AA.
T25 chain: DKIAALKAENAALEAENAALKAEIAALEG
The assay can be described thus: two-hybrid library CCmax. The note with it: mean of both orientations.

Another assay deals with T26, 4H3417-AA.
T26 chain: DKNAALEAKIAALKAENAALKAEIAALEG
The assay can be described thus: two-hybrid library CCmax. The note with it: mean of both orientations.

The next assay deals with T27, 4H3364-bH.
T27 chain: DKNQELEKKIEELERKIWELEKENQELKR
The assay can be described thus: two-hybrid library CCNG1.

The target in the next assay is T28, 4H932-bH.
T28 chain: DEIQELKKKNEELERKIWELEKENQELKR
Briefly: two-hybrid library CCNG1.

The next assay deals with T29, O5-bP.
T29 chain: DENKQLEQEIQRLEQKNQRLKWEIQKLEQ
The assay can be described thus: two-hybrid library CCNG1.

The next assay concerns the target T30, 4H349-bH.
T30 chain: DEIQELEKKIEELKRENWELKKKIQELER
The assay can be described thus: two-hybrid library CCNG1.

The target in a further assay is T31, O16-bN.
T31 chain: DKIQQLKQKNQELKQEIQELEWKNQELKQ
The assay can be described thus: two-hybrid library CCNG1.

The next assay addresses T32, 4H730-bH.
T32 chain: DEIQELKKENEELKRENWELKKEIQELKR
The assay can be described thus: two-hybrid library CCNG1.

Another assay has as its target T33, 4H56-bH.
T33 chain: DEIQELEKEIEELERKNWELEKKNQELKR
Briefly: two-hybrid library CCNG1.

The target in a further assay is T34, 4H3381-bH.
T34 chain: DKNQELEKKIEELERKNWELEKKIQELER
Briefly: two-hybrid library CCNG1.

A further assay concerns the target T35, 4H796-bH.
T35 chain: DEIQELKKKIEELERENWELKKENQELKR
Briefly: two-hybrid library CCNG1.

A further assay deals with T36, 4H949-bH.
T36 chain: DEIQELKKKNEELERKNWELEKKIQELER
The assay can be described thus: two-hybrid library CCNG1.

In another assay the target is T37, 4H348-bH.
T37 chain: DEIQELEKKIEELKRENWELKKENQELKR
The assay can be described thus: two-hybrid library CCNG1.

For a further assay, the target named is T38, 4H591-bH.
T38 chain: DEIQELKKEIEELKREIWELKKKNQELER
Briefly: two-hybrid library CCNG1.

In the next assay the target is T39, 4H906-bH.
T39 chain: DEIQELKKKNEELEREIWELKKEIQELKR
The assay can be described thus: two-hybrid library CCNG1.

A further assay has as its target T40, 4H3628-bH.
T40 chain: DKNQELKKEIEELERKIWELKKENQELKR
The assay can be described thus: two-hybrid library CCNG1.

The target of another assay is T41, 4H741-bH.
T41 chain: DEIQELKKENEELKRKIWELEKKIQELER
Briefly: two-hybrid library CCNG1.

The target of a further assay is T42, 4H477-bH.
T42 chain: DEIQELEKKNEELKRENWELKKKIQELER
Briefly: two-hybrid library CCNG1.

In another assay the target is T43, 4H3926-bH.
T43 chain: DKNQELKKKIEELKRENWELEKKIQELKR
Briefly: two-hybrid library CCNG1.

A further assay addresses T44, 4H3613-bH.
T44 chain: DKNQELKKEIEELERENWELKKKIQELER
The assay can be described thus: two-hybrid library CCNG1.

A further assay addresses T45, 4H3497-bH.
T45 chain: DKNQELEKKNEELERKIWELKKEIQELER
The assay can be described thus: two-hybrid library CCNG1.

The next assay concerns the target T46, 4H3298-bH.
T46 chain: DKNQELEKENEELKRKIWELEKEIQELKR
The assay can be described thus: two-hybrid library CCNG1.

Another assay addresses T47, 4H3277-bH.
T47 chain: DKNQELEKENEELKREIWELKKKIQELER
The assay can be described thus: two-hybrid library CCNG1.

Another assay concerns the target T48, 4H626-bH.
T48 chain: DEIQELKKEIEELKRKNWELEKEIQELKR
Briefly: two-hybrid library CCNG1.

A further assay deals with T49, 4H492-bH.
T49 chain: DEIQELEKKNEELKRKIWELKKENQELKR
Briefly: two-hybrid library CCNG1.

The target of another assay is T50, 4H3462-bH.
T50 chain: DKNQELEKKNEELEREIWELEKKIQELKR
The assay can be described thus: two-hybrid library CCNG1.

The target in a further assay is T51, 4H40-bH.
T51 chain: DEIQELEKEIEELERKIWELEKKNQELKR
The assay can be described thus: two-hybrid library CCNG1.

On to DEIAALEAENAALEAKNAALKAKIAALEG [4H189-AA], for which the interaction score was -1.84 with 4H3121-AA; -1.52 with 4H971-AA; 0.26 with 4H497-AA; 1.07 with 4H3066-AA; -0.919 with 4H3591-AA; -1.02 with 4H2948-AA. In addition, the interaction score with 4H3102-AA was -1.74; in the assay with 4H2991-AA it was -1.76; with 4H3666-AA, -0.914; with 4H2283-AA it was -1.71; in the assay with 4H675-AA it was -1.31; in the assay with 4H478-AA it was 1.85. Besides, the interaction score with 4H3920-AA was -1.97; with 4H3029-AA, 2.05; with 4H3939-AA, -1.4; in the assay with 4H2248-AA, -1.26; in the assay with 4H3709-AA it was -1.23; with 4H391-AA, -1.47. Moreover, the interaction score in the assay with 4H3446-AA is -1.07; with 4H428-AA it was -1.92; in the assay with 4H656-AA it was -0.83; with 4H3628-AA it was -1.64; with 4H2742-AA it was 1.11; with 4H189-AA, -1.25. In addition, the interaction score was 1.05 in the assay with 4H2713-AA and -1.19 with 4H3417-AA.
Consider DKNQELEKKIEELERKIWELEKENQELKR [4H3364-bH], for which the interaction score with 4H3364-bH was 1.55; in the assay with 4H932-bH, -0.252; with O5-bP, 0.546; with 4H349-bH, -0.118; in the assay with O16-bN, 0.622; in the assay with 4H730-bH it was -0.811. Besides, the interaction score with 4H56-bH is -0.464; with 4H3381-bH it was 0.55; with 4H796-bH, -0.523; with 4H949-bH, 0.153.
DKNQELEKENEELKREIWELKKKIQELER [4H3277-bH]: the interaction score with 4H348-bH is 0.219; with 4H591-bH, 0.0179; with 4H906-bH, -0.423; in the assay with 4H3628-bH it was -1.48; in the assay with 4H741-bH it was -2.8; with 4H477-bH, 0.256. The interaction score in the assay with 4H3926-bH was -0.167; with 4H3613-bH, -0.0624; in the assay with 4H3497-bH, -0.711; in the assay with 4H3298-bH, -0.709; in the assay with 4H3277-bH, 1.3; with 4H626-bH, -1.06. Besides, the interaction score is -0.305 with 4H492-bH, 0.203 with 4H3462-bH and 0.141 in the assay with 4H40-bH.
